Test results taken from IntAct's records for PubMed 32296183.

B1: Golgi SNAP receptor complex member 2 (Homo sapiens), O14653 (parent)
chain: MDPLFQQTHKQVHEIQSCMGRLETADKQSVHIVENEIQASIDQIFSRLERLEILSSKEPPNKRQNARLRVDQLKYDVQHLQTALRNFQHRRHAREQQERQREELLSRTFTTNDSDTTIPMDESLQFNSSLQKVHNGMDDLILDGHNILDGLRTQRLTLKGTQKKILDIANMLGLSNTVMRLIEKRAFQDKYFMIGGMLLTCVVMFLVVQYLT
partner: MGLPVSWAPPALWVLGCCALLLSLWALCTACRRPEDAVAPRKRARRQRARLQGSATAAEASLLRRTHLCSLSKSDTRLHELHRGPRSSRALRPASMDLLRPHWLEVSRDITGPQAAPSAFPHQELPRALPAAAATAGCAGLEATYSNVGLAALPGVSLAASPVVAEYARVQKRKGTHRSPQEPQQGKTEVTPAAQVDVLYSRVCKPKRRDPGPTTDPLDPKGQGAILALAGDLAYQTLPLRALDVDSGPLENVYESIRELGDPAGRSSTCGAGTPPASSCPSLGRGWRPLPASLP
B2: Dolichol kinase (Homo sapiens), Q9UPQ8 (parent)
chain: MTRECPSPAPGPGAPLSGSVLAEAAVVFAVVLSIHATVWDRYSWCAVALAVQAFYVQYKWDRLLQQGSAVFQFRMSANSGLLPASMVMPLLGLVMKERCQTAGNPFFERFGIVVAATGMAVALFSSVLALGITRPVPTNTCVILGLAGGVIIYIMKHSLSVGEVIEVLEVLLIFVYLNMILLYLLPRCFTPGEALLVLGGISFVLNQLIKRSLTLVESQGDPVDFFLLVVVVGMVLMGIFFSTLFVFMDSGTWASSIFFHLMTCVLSLGVVLPWLHRLIRRNPLLWLLQFLFQTDTRIYLLAYWSLLATLACLVVLYQNAKRSSSESKKHQAPTIARKYFHLIVVATYIPGIIFDRPLLYVAATVCLAVFIFLEYVRYFRIKPLGHTLRSFLSLFLDERDSGPLILTHIYLLLGMSLPIWLIPRPCTQKGSLGGARALVPYAGVLAVGVGDTVASIFGSTMGEIRWPGTKKTFEGTMTSIFAQIISVALILIFDSGVDLNYSYAWILGSISTVSLLEAYTTQIDNLLLPLYLLILLMA
partner: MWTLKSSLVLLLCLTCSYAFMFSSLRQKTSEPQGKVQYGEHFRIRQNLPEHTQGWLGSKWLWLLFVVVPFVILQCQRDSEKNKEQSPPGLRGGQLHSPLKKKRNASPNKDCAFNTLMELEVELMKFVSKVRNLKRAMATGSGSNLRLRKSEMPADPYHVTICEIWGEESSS
B3: Dolichol kinase (Homo sapiens), Q9UPQ8 (parent)
chain: B2 chain
partner: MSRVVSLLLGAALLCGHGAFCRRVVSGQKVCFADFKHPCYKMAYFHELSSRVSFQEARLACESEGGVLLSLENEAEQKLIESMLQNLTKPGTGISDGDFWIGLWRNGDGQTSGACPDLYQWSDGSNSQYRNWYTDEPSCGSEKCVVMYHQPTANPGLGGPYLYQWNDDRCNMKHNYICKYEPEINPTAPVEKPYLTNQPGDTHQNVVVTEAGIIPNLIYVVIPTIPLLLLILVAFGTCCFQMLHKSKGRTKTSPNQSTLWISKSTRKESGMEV
B4: Golgi SNAP receptor complex member 2 (Homo sapiens), O14653 (parent)
chain: B1 chain
partner: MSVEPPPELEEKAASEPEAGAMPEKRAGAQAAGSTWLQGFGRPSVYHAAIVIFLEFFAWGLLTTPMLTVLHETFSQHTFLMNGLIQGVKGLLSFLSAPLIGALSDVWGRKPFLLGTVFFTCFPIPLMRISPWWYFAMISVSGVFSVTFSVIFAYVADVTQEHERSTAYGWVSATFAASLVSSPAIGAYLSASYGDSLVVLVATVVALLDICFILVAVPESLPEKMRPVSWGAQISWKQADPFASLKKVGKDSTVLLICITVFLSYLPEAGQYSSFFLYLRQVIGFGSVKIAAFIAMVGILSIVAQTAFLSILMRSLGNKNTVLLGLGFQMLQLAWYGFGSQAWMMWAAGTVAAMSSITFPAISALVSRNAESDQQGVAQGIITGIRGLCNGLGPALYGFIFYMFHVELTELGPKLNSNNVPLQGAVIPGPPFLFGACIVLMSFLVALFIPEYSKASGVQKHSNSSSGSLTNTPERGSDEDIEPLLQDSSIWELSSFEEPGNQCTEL
B5: Very-long-chain enoyl-CoA reductase (Homo sapiens), Q9NZ01 (parent)
chain: MKHYEVEILDAKTREKLCFLDKVEPHATIAEIKNLFTKTHPQWYPARQSLRLDPKGKSLKDEDVLQKLPVGTTATLYFRDLGAQISWVTVFLTEYAGPLFIYLLFYFRVPFIYGHKYDFTSSRHTVVHLACICHSFHYIKRLLETLFVHRFSHGTMPLRNIFKNCTYYWGFAAWMAYYINHPLYTPPTYGAQQVKLALAIFVICQLGNFSIHMALRDLRPAGSKTRKIPYPTKNPFTWLFLLVSCPNYTYEVGSWIGFAIMTQCLPVALFSLVGFTQMTIWAKGKHRSYLKEFRDYPPLRMPIIPFLL
partner: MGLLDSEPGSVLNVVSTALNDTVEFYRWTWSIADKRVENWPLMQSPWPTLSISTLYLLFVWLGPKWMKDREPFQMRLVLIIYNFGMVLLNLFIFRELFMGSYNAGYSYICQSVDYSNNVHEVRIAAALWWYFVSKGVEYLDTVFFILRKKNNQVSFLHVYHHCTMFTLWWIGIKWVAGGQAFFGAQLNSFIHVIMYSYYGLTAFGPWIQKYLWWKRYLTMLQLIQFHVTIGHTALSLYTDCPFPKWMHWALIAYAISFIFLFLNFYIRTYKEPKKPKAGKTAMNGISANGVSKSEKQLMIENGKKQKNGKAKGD

Variants of: B1
Conditions: with lime1_human LIME1, Q9H400

| effect of a mutation on the interaction | Variant |
| --- | --- |
| disrupting interaction strength | MDPLFQQTHKQVHEIQSCMGRLETADKQSVHIVENEIQASIDQIFSRLERLEILSSKEPPNKRQNARLRVDQLKYDVQHLQTALRNFQHRRHAREQQERQREELLSRTFTTNDSDTTIPMDESLQFNSSLQKVHNGMDDLILDWHNILDGLRTQRLTLKGTQKKILDIANMLGLSNTVMRLIEKRAFQDKYFMIGGMLLTCVVMFLVVQYLT [G144W] |

Variants of: B2
Conditions: with FAM209A

| effect of a mutation on the interaction | Variant |
| --- | --- |
| disrupting interaction strength | MTRECPSPAPGPGAPLSGSVLAEAAVVFAVVLSIHATVWDRYSWCAVALAVQAFYVQYKWDRLLQQGSAVFQFRMSANSGLLPASMVMPLLGLVMKERCQTAGNPFFERFGIVVAATGMAVALFSSVLALGITRPVPTNTCVILGLAGGVIIYIMKHSLSVGEVIEVLEVLLIFVYLNMILLYLLPRCFTPGEALLVLGGISFVLNQLIKRSLTLVESQGDPVDFFLLVVVVGMVLMGIFFSTLFVFMDSGTWASSIFFHLMTCVLSLGVVLPWLHRLIRRNPLLWLLQFLFQTDTRIYLLAYWSLLATLACLVVLYQNAKRSSSESKKHQAPTIARKYFHLIVVATYIPGIIFDRPLLYVAATVCLAVFIFLEYVRYFRIKPLGHTLRSFLSLFLDERDSGPLILTHIYLLLGMSLPIWLIPRPCTQKGSLGGARALVPSAGVLAVGVGDTVASIFGSTMGEIRWPGTKKTFEGTMTSIFAQIISVALILIFDSGVDLNYSYAWILGSISTVSLLEAYTTQIDNLLLPLYLLILLMA [Y441S] |

Variants of: B3
Conditions: with chodl_human CHODL

| effect of a mutation on the interaction | Variant |
| --- | --- |
| disrupting interaction strength | MTRECPSPAPGPGAPLSGSVLAEAAVVFAVVLSIHATVWDRYSWCAVALAVQAFYVQYKWDRLLQQGSAVFQFRMSANSGLLPASMVMPLLGLVMKERCQTAGNPFFERFGIVVAATGMAVALFSSVLALGITRPVPTNTCVILGLAGGVIIYIMKHSLSVGEVIEVLEVLLIFVYLNMILLYLLPRCFTPGEALLVLGGISFVLNQLIKRSLTLVESQGDPVDFFLLVVVVGMVLMGIFFSTLFVFMDSGTWASSIFFHLMTCVLSLGVVLPWLHRLIRRNPLLWLLQFLFQTDTRIYLLAYWSLLATLACLVVLYQNAKRSSSESKKHQAPTIARKYFHLIVVATYIPGIIFDRPLLYVAATVCLAVFIFLEYVRYFRIKPLGHTLRSFLSLFLDERDSGPLILTHIYLLLGMSLPIWLIPRPCTQKGSLGGARALVPSAGVLAVGVGDTVASIFGSTMGEIRWPGTKKTFEGTMTSIFAQIISVALILIFDSGVDLNYSYAWILGSISTVSLLEAYTTQIDNLLLPLYLLILLMA [Y441S] |

Variants of: B4
Conditions: with mf14b_human MFSD14B

| effect of a mutation on the interaction | Variant |
| --- | --- |
| with no effect | MDPLFQQTHKQVHEIQSCMGRLETADKQSVHIVENEIQASIDQIFSRLERLEILSSKEPPNKRQNARLRVDQLKYDVQHLQTALRNFQHRRHAREQQERQREELLSRTFTTNDSDTTIPMDESLQFNSSLQKVHNGMDDLILDWHNILDGLRTQRLTLKGTQKKILDIANMLGLSNTVMRLIEKRAFQDKYFMIGGMLLTCVVMFLVVQYLT [G144W] |

Variants of: B5
Conditions: with elov4_human ELOVL4, Q9GZR5

| effect of a mutation on the interaction | Variant |
| --- | --- |
| disrupting interaction strength | MKHYEVEILDAKTREKLCFLDKVEPHATIAEIKNLFTKTHPQWYPARQSLRLDPKGKSLKDEDVLQKLPVGTTATLYFRDLGAQISWVTVFLTEYAGPLFIYLLFYFRVPFIYGHKYDFTSSRHTVVHLACICHSFHYIKRLLETLFVHRFSHGTMPLRNIFKNCTYYWGFAAWMAYYINHLLYTPPTYGAQQVKLALAIFVICQLGNFSIHMALRDLRPAGSKTRKIPYPTKNPFTWLFLLVSCPNYTYEVGSWIGFAIMTQCLPVALFSLVGFTQMTIWAKGKHRSYLKEFRDYPPLRMPIIPFLL [P182L] |
